# Reference: the Immune Epitope Database (IEDB)
# Experiments:
# Details in all cases: source organism: Yersinia pestis Nepal516
# HLA-C*14:02 = experiment: IEDB peptide-MHC binding, purified MHC/direct/fluorescence; filed as Kd, often an IC50 or EC50 that approximates it; ≥ and ≤ were set here for values at or beyond the usual limits of such assays
# HLA-C*15:02 = experiment: as above
# HLA-A*02:01 = experiment: IEDB peptide-MHC binding, purified MHC/competitive/fluorescence; filed as Kd, often an IC50 or EC50 that approximates it; ≥ and ≤ were set here for values at or beyond the usual limits of such assays
# HLA-A*26:01 = experiment: as above
# HLA-A*32:15 = experiment: as above
# HLA-B*15:01 = experiment: as above
# HLA-B*15:42 = experiment: as above
# HLA-B*27:20 = experiment: as above
# HLA-B*40:13 = experiment: as above
# HLA-B*45:06 = experiment: as above
# HLA-B*58:01 = experiment: as above
# HLA-B*83:01 = experiment: as above
# HLA-C*06:02 = experiment: as above
sequence,measurement,setting,value
YMYDFILRF,Kd,HLA-C*14:02,4100 nM
same,Kd,HLA-C*15:02,≥ 20000 nM
same,Kd,HLA-A*02:01,15.9 nM
same,Kd,HLA-A*26:01,≥ 20000 nM
same,Kd,HLA-A*32:15,908 nM
same,Kd,HLA-B*15:01,2330 nM
same,Kd,HLA-B*15:42,≥ 5000 nM
same,Kd,HLA-B*27:20,63.3 nM
same,Kd,HLA-B*40:13,159 nM
same,Kd,HLA-B*45:06,≥ 5000 nM
same,Kd,HLA-B*58:01,≥ 20000 nM
same,Kd,HLA-B*83:01,≥ 5000 nM
same,Kd,HLA-C*06:02,1180 nM
